Reference: publication PMC7116892 (Science (New York, N.Y.), 2021)

T1: Dic3, ODA intermediate chain (Tetrahymena thermophila, UniProt Q23FU1 1-670)
T1 sequence (looked up): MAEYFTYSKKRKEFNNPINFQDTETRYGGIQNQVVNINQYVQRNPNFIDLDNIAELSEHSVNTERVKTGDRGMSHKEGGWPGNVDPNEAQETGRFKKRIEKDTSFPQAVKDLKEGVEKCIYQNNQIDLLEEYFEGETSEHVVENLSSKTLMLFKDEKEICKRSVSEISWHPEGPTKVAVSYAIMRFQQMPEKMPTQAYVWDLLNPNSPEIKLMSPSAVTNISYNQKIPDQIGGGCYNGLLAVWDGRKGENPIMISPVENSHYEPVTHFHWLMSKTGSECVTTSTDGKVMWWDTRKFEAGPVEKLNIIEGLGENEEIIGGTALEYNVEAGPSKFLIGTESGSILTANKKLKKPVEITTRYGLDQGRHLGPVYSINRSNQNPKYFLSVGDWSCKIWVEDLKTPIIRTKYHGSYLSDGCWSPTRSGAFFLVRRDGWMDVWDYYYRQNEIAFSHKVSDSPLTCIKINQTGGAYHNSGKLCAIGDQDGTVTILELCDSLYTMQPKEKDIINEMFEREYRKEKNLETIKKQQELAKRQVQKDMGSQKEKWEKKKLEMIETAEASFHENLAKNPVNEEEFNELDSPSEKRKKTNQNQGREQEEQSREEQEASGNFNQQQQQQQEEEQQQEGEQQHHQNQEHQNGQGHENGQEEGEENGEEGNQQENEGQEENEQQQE

T2: Shulin (Q22YU3), recombinant full-length, C-terminal 2xStrep (Tetrahymena thermophila, UniProt Q22YU3 1-1200)
T2 sequence (looked up): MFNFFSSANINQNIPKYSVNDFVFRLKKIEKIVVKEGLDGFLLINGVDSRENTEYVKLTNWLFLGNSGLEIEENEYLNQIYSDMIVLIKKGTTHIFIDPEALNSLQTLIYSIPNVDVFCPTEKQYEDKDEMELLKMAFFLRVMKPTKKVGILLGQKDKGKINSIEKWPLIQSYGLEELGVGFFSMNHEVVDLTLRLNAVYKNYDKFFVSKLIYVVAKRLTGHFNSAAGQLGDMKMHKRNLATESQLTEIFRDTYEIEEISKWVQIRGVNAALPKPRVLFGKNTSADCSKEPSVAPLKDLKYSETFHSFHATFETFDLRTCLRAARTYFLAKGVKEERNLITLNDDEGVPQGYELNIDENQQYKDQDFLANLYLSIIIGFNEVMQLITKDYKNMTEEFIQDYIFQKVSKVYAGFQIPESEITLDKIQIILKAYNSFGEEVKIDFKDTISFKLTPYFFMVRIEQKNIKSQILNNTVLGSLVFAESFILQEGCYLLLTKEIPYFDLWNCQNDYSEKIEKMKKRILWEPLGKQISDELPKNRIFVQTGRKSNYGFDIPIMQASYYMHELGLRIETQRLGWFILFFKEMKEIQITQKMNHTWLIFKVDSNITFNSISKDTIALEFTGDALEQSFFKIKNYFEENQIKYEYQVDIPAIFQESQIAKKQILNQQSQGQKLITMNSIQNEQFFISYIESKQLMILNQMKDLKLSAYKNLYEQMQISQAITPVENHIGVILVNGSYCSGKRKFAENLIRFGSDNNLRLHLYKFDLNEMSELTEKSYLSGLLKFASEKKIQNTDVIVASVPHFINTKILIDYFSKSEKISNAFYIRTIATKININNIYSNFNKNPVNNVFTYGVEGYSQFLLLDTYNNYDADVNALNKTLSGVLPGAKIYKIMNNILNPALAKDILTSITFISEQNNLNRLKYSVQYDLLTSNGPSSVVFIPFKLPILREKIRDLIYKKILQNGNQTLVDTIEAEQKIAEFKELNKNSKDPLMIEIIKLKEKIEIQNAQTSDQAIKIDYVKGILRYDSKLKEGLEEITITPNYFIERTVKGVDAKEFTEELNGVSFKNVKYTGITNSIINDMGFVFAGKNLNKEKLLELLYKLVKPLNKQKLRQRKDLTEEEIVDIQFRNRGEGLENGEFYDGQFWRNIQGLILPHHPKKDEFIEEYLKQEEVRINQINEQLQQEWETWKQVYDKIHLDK

B1: Lc7, roadblock ODA light chain (natural protein, Tetrahymena thermophila, UniProt I7MHB1 1-133, looked up)
chain: MAQDINADDQLKQLSALEGANGYVIFNESGIPLKRHEKSISHEKAVHIAALVSDLWNVSKKVIQRDLKTPENDIEVIRLRTKHSYEYIITQSGDFTMLAIQLCGKAIEEAKKAAAAAAAAAVVQEENKEKEKK
B2: Lc8, ODA light chain (natural protein, Tetrahymena thermophila, UniProt W7XJB1 1-111, looked up)
chain: MSDSDSDEGRVVEEPLPPHIIRFNDMAQHLLKKVIRQADVLIKENPQGLEKDIALNLVKFVKSQPEFKIGDGEWQCIIGKNFGCSLTFDANVLAFFDLLPSRKSILLFKSG
B3: Dic2, ODA intermediate chain (natural protein, Tetrahymena thermophila, UniProt I7M008 1-667, looked up)
chain: MPPKQTKVVASRKTVMPISRAGRAQIRRKDSNTQNNMNDQGMEDEEIDQQREGMKNQYEQLTAQELNEDMPSKMLEPKNPQAPKNITVYDYYTRKFKTDELVDQMIVHFSMDGDYIWKESNEYKTQEEIRDTKKALIKEAMRKQESEEPGANHDEEAIKQTLRNKFNYNTRECQTINPSIRERGVSTEPPPSDTICGNITQWEIFDAYYAEIMKDHQIENKKKKEVDQDKKQDQSMYSTSFKRCCKIMERMVVQNDQEDKYHDYRYYWSQGDNLEAGKNEGHLLPIWRFSNEKQRKKNVTSICWNPLYPDLFAVSLGSYDFTKQRMGLICLYSLKNTTHPEYAFNCEAGVMCLDFHPKSAALLAVGLYDGTVLVYDIRNKHKKPIYQSTVRNQKHTDPVWQVKWNPDTSKNYNFYSISSDGRVMNWILMKNKLEPEEVILLRLVGKNEEESTLIGLACGLCFDFNKFEPHIFLVGTEEGKIHKCSRAYSGQYQETYNGHLLAVYKVKWNNFHPRTFISASADWTVRIWDSKYTSQIICFDLSMMVVDAVWAPYSSTVFACATMDKVQVYDLNVDKLNKLAEQKIVKQPKLTNLSFNYKDPILLVGDSHGGVTLVKLSPNLCKSGPEIKQTEDKKAMEEFKNVKIEDYEREKMENLLAVVSKWEREDA
B4: Lc8f (unnamed Lc8-like protein, UniProt ID Q22R86), ODA light chain (natural protein, Tetrahymena thermophila, UniProt Q22R86 1-111, looked up)
chain: MASNQQQKEDPKEQQQQYKTFMGARVLWPPECADDILEGAIRETQDALKKFEIAREGQKIAEHLKKYMDDHFDPYWHVFFGKNFGCQAVHNKNRFIYFYIEKTAFLMYQTQ
B5: Lc8d, ODA light chain (natural protein, Tetrahymena thermophila, UniProt Q24CE5 1-87, looked up)
chain: MNHEPEVKATDMEEDMIKRVKEIAINAVKEYKQEKQIAHYIKYEFDKIDGYGWNCIVGRNFGSHIIHQTKKYIFFKINELCLLLWKA
B6: Lc8e, ODA light chain (natural protein, Tetrahymena thermophila, UniProt Q24DI9 1-93, looked up)
chain: MGDHANEQIIDMPENSEMKSMKNDAFSQAKFAVENYKFENKISSHIKKFFDEKYGPNWHCVVGKHFNAYVSYDSKNFIFFYEGQLAILLYRKG
B7: Lc7b, roadblock ODA light chain (natural protein, Tetrahymena thermophila, UniProt Q22MV2 1-159, looked up)
chain: MIYKTSKEIQKSDQRIIQQRVENSIINNQIYQKSLKRKTSKRKVRHQANKKNFQKEMSEVEDTLNRIKTHKTVLGYLIVNSEGGVVRGAFKDEEESKNIANSIPLLTKKARSVVRDLDPTNDLVFLRIQTKLNEIMVAPDDEFSLIVIQTKGEKRDEND
B8: Lc9, Tctex-like ODA light chain (natural protein, Tetrahymena thermophila, UniProt A4VEB3 1-117, looked up)
chain: MGDTDKEYISEEVQKAIDDSVKQVFGIKDDSSQVTITYNKDKVNLWTQQIIDYTIRGLNKLGKHFKYCVTAILQQTNHAGISVQITAYQDTNTDGSLIQCYEINDIYAIVSVFAMAV

What was measured:
Experiment in all cases: cryo-EM structure
[1] = biological target: B3
[2] = biological target: T1, Dic3, ODA intermediate chain
[3] = biological target: B7
[4] = biological target: T2, Shulin (Q22YU3), recombinant …

binding result [1] | binding result [2] | binding result [3] | binding result [4] | Binder
binds | binds | binds |  | B1
binds | binds |  |  | B2
 |  |  | binds | B3
binds | binds |  |  | B4
binds | binds |  | binds | B5
binds | binds |  | binds | B6
binds | binds |  |  | B7
binds | binds |  |  | B8
